Measurements reported in the supplement of paper PMC7877785.
± gives the uncertainty stated by the source.

Assay: self-splicing fitness, log relative to wild type (ln ratio); higher = more splicing; Tetrahymena group I intron in knt gene, E. coli kanamycin selection, DiMSum; sequences stand for … in CUCUCU…GGAGGGAAAAGUUAUCAGGCAUGCACCUGGUAGCUAGUCUUUAAACCAAUAGAUUGCAUCGGUUUAAAAGGCAAGACCGUCAAAUUGCGGGAAAGGGGUCAACAGCCGUUCAGUACCAAGUCUCAGGGGAAACUUUGAGAUGGCCUUGCAAAGGGUAUGGUAAUAAGCUGACGGACAUGGUCCUAACCACGCAGCCAAGUCCUAAGUCAACAGAUCUUCUGUUGAUAUGGAUGCAGUUCACAGACUAAAUGUCGGUCGGGGAAGAUGUAUUCUUCUCAUAAGAUAUAGUCGGACCUCUCCUUAAUGGGAGCUAGCGGAUGAAGUGAUGCAACACUGGAGCCGCUGGGAACUAAUUUGUAUGCGAAAGUAUAUUGAUUAGUUUUGGAGUACUCGUGGUCG
In short: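 DiMSum derived fitness as the error-weighted combination of fold changes across replicates, kanamycin versus no kanamycin, normalised to wild type. E. coli BL21(DE3) held the library, which randomised all eight P1ex-region intron nucleotides within the knt kanamycin-resistance gene on pET-22b(+). Six replicate transformations grew overnight at 37°C or 30°C on LB agar with or without 25 μg/mL kanamycin, also containing 100 μg/mL carbenicillin, 50 μM IPTG and 0.2% rhamnose, and pooled colonies were amplicon-sequenced on an Illumina HiSeq 2500.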

Sequence	self-splicing fitness (ln) (30 °C)	self-splicing fitness (ln) (37 °C)
UGCCAGCAAUAUUACGACCA	0.429 ± 0.1	0.0668 ± 0.13
UGCCAGCAAUAUUACGAGAG	-4.28 ± 0.21	-2.56 ± 0.14
UGCCAGCAAUAUUACGAGCG	-0.919 ± 0.066	-0.309 ± 0.079
UGCCAGCAAUAUUACGAGGA	-1.49 ± 0.17	-2.37 ± 0.22
UGCCAGCAAUAUUACGCGCA	-2.51 ± 0.28	-1.06 ± 0.16
UGCCAGCAAUAUUACGCGCC	-1.15 ± 0.17	-0.705 ± 0.23
UGCCAGCAAUAUUACGCUGA	-3.01 ± 0.19	-2.21 ± 0.21
UGCCAGCAAUAUUACGCUUU	-2.03 ± 0.079	-1.76 ± 0.074
UGCCAGCAAUAUUACGGACC	-0.869 ± 0.2	0.326 ± 0.23
UGCCAGCAAUAUUACGGACG	-0.337 ± 0.06	-0.0244 ± 0.076
UGCCAGCAAUAUUACGGCCA	-0.44 ± 0.076	-0.0136 ± 0.086
UGCCAGCAAUAUUACGGCCU	-0.579 ± 0.1	-0.213 ± 0.12
UGCCAGCAAUAUUACGGGGA	-1.8 ± 0.087	-0.863 ± 0.11
UGCCAGCAAUAUUACGGGUC	-3.53 ± 0.23	-2.34 ± 0.18
UGCCAGCAAUAUUACGUAAG	-2 ± 0.067	-1.24 ± 0.083
UGCCAGCAAUAUUACGUAGA	-1.45 ± 0.056	-0.504 ± 0.065
UGCCAGCAAUAUUACGUAGC	-3.9 ± 0.37	-1.64 ± 0.17
UGCCAGCAAUAUUACGUCCU	-1.6 ± 0.14	0.244 ± 0.14
UGCCAGCAAUAUUACGUGAG	-2.12 ± 0.11	-0.54 ± 0.097
UGCCAGCAAUAUUACGUGUU	-2.74 ± 0.1	-1.67 ± 0.075
UGCCAGCAAUAUUACGUUAG	-2.26 ± 0.12	-0.975 ± 0.13
UGCGAGCAAUAUUACGAGAG	-2.89 ± 0.15	–
UGCGAGCAAUAUUACGAGGC	-2.74 ± 0.23	-2 ± 0.23
UGCGAGCAAUAUUACGCGUC	-2.18 ± 0.26	–
UGCGAGCAAUAUUACGCUAC	–	-0.55 ± 0.46

Sequence	self-splicing fitness (ln) (30 °C)	self-splicing fitness (ln) (37 °C)
UGCGAGCAAUAUUACGGAUU	–	-3.08 ± 0.4
UGCGAGCAAUAUUACGGGAC	-3.69 ± 0.39	-1.88 ± 0.23
UGCGAGCAAUAUUACGGGAU	-3.78 ± 0.35	-2.21 ± 0.28
UGCGAGCAAUAUUACGGGUG	-1.72 ± 0.11	-1.49 ± 0.12
UGCGAGCAAUAUUACGGUAC	-4.18 ± 0.3	-3.26 ± 0.23
UGCGAGCAAUAUUACGGUAG	-3.36 ± 0.24	-3.01 ± 0.32
UGCGAGCAAUAUUACGUAUU	-3.07 ± 0.17	-2.58 ± 0.2
UGCGAGCAAUAUUACGUCUA	-0.974 ± 0.15	-0.453 ± 0.17
UGCGAGCAAUAUUACGUGAU	-2.47 ± 0.23	-2.09 ± 0.4
UGCUAGCAAUAUUACGAAUA	-1.27 ± 0.13	-1.16 ± 0.12
UGCUAGCAAUAUUACGACCU	-0.548 ± 0.088	-0.345 ± 0.1
UGCUAGCAAUAUUACGACUG	0.165 ± 0.081	0.259 ± 0.11
UGCUAGCAAUAUUACGAGAG	-2.79 ± 0.22	-2.13 ± 0.23
UGCUAGCAAUAUUACGAUAA	-1.64 ± 0.15	-0.358 ± 0.14
UGCUAGCAAUAUUACGAUUC	–	-2.33 ± 0.49
UGCUAGCAAUAUUACGCACG	-1.27 ± 0.12	-1.18 ± 0.16
UGCUAGCAAUAUUACGCCAA	–	0.0147 ± 0.24
UGCUAGCAAUAUUACGCUCC	-2.06 ± 0.23	-0.757 ± 0.24
UGCUAGCAAUAUUACGGAUA	-1.44 ± 0.11	-1.1 ± 0.13
UGCUAGCAAUAUUACGGCAU	-3.65 ± 0.28	-2.37 ± 0.31
UGCUAGCAAUAUUACGGCGU	-3.57 ± 0.22	-1.89 ± 0.17
UGCUAGCAAUAUUACGGCUA	-0.795 ± 0.17	0.345 ± 0.15
UGCUAGCAAUAUUACGGGCC	-1.55 ± 0.14	-1.33 ± 0.15
UGCUAGCAAUAUUACGGGCG	-1.45 ± 0.1	-1.82 ± 0.11
UGCUAGCAAUAUUACGGGGA	-0.989 ± 0.14	0.0335 ± 0.14

Sequence	self-splicing fitness (ln) (30 °C)	self-splicing fitness (ln) (37 °C)
UGCUAGCAAUAUUACGGGGU	-2.82 ± 0.21	-2.09 ± 0.21
UGCUAGCAAUAUUACGGUAU	-2.28 ± 0.1	-2.43 ± 0.14
UGCUAGCAAUAUUACGUAGG	-2.18 ± 0.14	-0.778 ± 0.2
UGCUAGCAAUAUUACGUGAU	-1.88 ± 0.13	-1.39 ± 0.16
UGCUAGCAAUAUUACGUGUA	-1.74 ± 0.1	-1.26 ± 0.1
UGCUAGCAAUAUUACGUUCC	–	-0.823 ± 0.42
UGCUAGCAAUAUUACGUUUC	-4.01 ± 0.42	-2.06 ± 0.34
UGGAAGCAAUAUUACGAACC	-1.6 ± 0.13	-0.663 ± 0.12
UGGAAGCAAUAUUACGAAGG	-2.12 ± 0.14	-0.449 ± 0.18
UGGAAGCAAUAUUACGACCG	-0.874 ± 0.13	-0.818 ± 0.17
UGGAAGCAAUAUUACGACUC	-0.463 ± 0.11	-0.577 ± 0.16
UGGAAGCAAUAUUACGAGAC	-3.31 ± 0.48	–
UGGAAGCAAUAUUACGCAUG	-1.02 ± 0.096	-0.486 ± 0.12
UGGAAGCAAUAUUACGCCAC	-2.25 ± 0.42	–
UGGAAGCAAUAUUACGCCGG	-0.646 ± 0.17	-0.109 ± 0.16
UGGAAGCAAUAUUACGCCGU	-2.99 ± 0.48	-1.87 ± 0.44
UGGAAGCAAUAUUACGCUAA	-1.31 ± 0.32	-0.826 ± 0.38
UGGAAGCAAUAUUACGGAAG	-1.69 ± 0.12	-1.46 ± 0.17
UGGAAGCAAUAUUACGGCAU	-1.94 ± 0.19	-1.13 ± 0.19
UGGAAGCAAUAUUACGGCGU	-1.16 ± 0.13	0.0292 ± 0.12
UGGAAGCAAUAUUACGGCUC	-1.89 ± 0.49	-1.42 ± 0.36
UGGAAGCAAUAUUACGGGAA	-2.15 ± 0.21	-1.19 ± 0.16
UGGAAGCAAUAUUACGGGAG	-1.73 ± 0.37	-2.09 ± 0.25
UGGAAGCAAUAUUACGGGGC	-3.24 ± 0.44	-1.35 ± 0.26
UGGAAGCAAUAUUACGGGGU	-3.12 ± 0.31	-1.99 ± 0.35

Sequence	self-splicing fitness (ln) (30 °C)	self-splicing fitness (ln) (37 °C)
UGGAAGCAAUAUUACGGGUA	-1.67 ± 0.13	-1.05 ± 0.13
UGGAAGCAAUAUUACGGUCC	-2.67 ± 0.15	-1.51 ± 0.14
UGGAAGCAAUAUUACGGUGA	-1.41 ± 0.12	-0.4 ± 0.13
UGGAAGCAAUAUUACGGUGG	-1.42 ± 0.091	-0.276 ± 0.11
UGGAAGCAAUAUUACGGUUC	-3.84 ± 0.2	-2.21 ± 0.2
UGGAAGCAAUAUUACGUAAC	-2.91 ± 0.33	-1.71 ± 0.26
UGGAAGCAAUAUUACGUAAU	-3.03 ± 0.18	-0.953 ± 0.16
UGGAAGCAAUAUUACGUAUA	-2.2 ± 0.26	-1.27 ± 0.2
UGGAAGCAAUAUUACGUCCA	-2.02 ± 0.39	–
UGGAAGCAAUAUUACGUCUU	-0.99 ± 0.11	-0.129 ± 0.13
UGGAAGCAAUAUUACGUGAG	-0.593 ± 0.066	-0.141 ± 0.098
UGGAAGCAAUAUUACGUGUC	–	-2.38 ± 0.18
UGGAAGCAAUAUUACGUUAG	-0.289 ± 0.094	-1.07 ± 0.14
UGGAAGCAAUAUUACGUUUU	-3.63 ± 0.33	-2.43 ± 0.27
UGGCAGCAAUAUUACGAAAU	-3.14 ± 0.29	-0.617 ± 0.19
UGGCAGCAAUAUUACGACAC	–	-0.701 ± 0.31
UGGCAGCAAUAUUACGAGUU	-4.06 ± 0.3	-2.48 ± 0.24
UGGCAGCAAUAUUACGAUAA	-0.124 ± 0.1	0.0812 ± 0.1
UGGCAGCAAUAUUACGAUGU	-4.09 ± 0.3	-1.67 ± 0.34
UGGCAGCAAUAUUACGAUUA	-0.716 ± 0.089	0.492 ± 0.11
UGGCAGCAAUAUUACGCAAC	-2.74 ± 0.18	-2.14 ± 0.39
UGGCAGCAAUAUUACGCAAU	-2.31 ± 0.099	-1 ± 0.12
UGGCAGCAAUAUUACGCCAA	-1.03 ± 0.13	-0.634 ± 0.12
UGGCAGCAAUAUUACGCCGA	-0.136 ± 0.092	0.134 ± 0.1
